Assay results reported in publication PMC10681739, “High-throughput data and modeling reveal insights into the mechanisms of cooperative DNA-binding by transcription factor proteins”.

T1: ETS1 (Homo sapiens, UniProt P14921)
T1 sequence: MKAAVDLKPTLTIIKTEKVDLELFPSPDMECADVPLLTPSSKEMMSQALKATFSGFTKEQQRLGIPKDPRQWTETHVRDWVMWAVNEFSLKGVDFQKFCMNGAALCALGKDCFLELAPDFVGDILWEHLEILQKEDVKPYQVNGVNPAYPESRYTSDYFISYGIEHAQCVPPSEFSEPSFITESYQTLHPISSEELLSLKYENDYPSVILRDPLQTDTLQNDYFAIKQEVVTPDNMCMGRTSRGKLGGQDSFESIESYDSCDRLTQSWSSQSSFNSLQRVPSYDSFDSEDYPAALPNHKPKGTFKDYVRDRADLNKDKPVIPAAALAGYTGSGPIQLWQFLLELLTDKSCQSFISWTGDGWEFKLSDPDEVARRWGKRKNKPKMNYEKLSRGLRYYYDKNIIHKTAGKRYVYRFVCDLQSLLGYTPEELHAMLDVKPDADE

B1: Table S2 B row 3605 (dsDNA)
DNA 1: GGGCTTCCCGGGTACAAAAATGGCTGTCGCTAGCGA
DNA 2: TCGCTAGCGACAGCCATTTTTGTACCCGGGAAGCCC
B2: Table S2 B row 1858 (dsDNA)
DNA 1: TGGCTTCCTGTCTGTCCTTCATCAGCCCAGAGAGGC
DNA 2: GCCTCTCTGGGCTGATGAAGGACAGACAGGAAGCCA
B3: Table S2 B row 3871 (dsDNA)
DNA 1: CCTGAGAGATCCGGCGCGCGTCTTCCACCAAAATGC
DNA 2: GCATTTTGGTGGAAGACGCGCGCCGGATCTCTCAGG
B4: Table S2 B row 2231 (dsDNA)
DNA 1: GCGCCCTCCAGGAAACGCCGCGATTTACTGTCTGCC
DNA 2: GGCAGACAGTAAATCGCGGCGTTTCCTGGAGGGCGC
B5: Table S2 B row 1189 (dsDNA)
DNA 1: TCCAGCGGAAGGGGGCATCTTTACGGCAGAGGCAGC
DNA 2: GCTGCCTCTGCCGTAAAGATGCCCCCTTCCGCTGGA
B6: Table S2 B row 411 (dsDNA)
DNA 1: CGCCCTCCGGAAGAGAGGGCGGACAGCGCCCGCGCC
DNA 2: GGCGCGGGCGCTGTCCGCCCTCTCTTCCGGAGGGCG
B7: Table S2 B row 2334 (dsDNA)
DNA 1: CCCCTCGCCCTTCCGCATTGCGTGTTACTTCGGTTG
DNA 2: CAACCGAAGTAACACGCAATGCGGAAGGGCGAGGGG
B8: Table S2 B row 1479 (dsDNA)
DNA 1: CAGATTCCCGGAAAGGGGGACATGTAGCCGCCAAAG
DNA 2: CTTTGGCGGCTACATGTCCCCCTTTCCGGGAATCTG
B9: Table S2 B row 1194 (dsDNA)
DNA 1: TGAGTTTTGTTTCCGATTCACCTCAGAAGATACTTT
DNA 2: AAAGTATCTTCTGAGGTGAATCGGAAACAAAACTCA
B10: Table S2 B row 40 (dsDNA)
DNA 1: TTGCGTCATTTCCGAGAGACTTTCGCGCCGCTGTTT
DNA 2: AAACAGCGGCGCGAAAGTCTCTCGGAAATGACGCAA
B11: Table S2 B row 1455 (dsDNA)
DNA 1: AGTGAGCTTCCTCCTGAGGCCTGAGGCAACCCCAGG
DNA 2: CCTGGGGTTGCCTCAGGCCTCAGGAGGAAGCTCACT
B12: Table S2 B row 1424 (dsDNA)
DNA 1: TGCTTGTCCGGTGGCTGCTGCGCTGCCGAAACGAAT
DNA 2: ATTCGTTTCGGCAGCGCAGCAGCCACCGGACAAGCA
B13: Table S2 B row 3763 (dsDNA)
DNA 1: GCGCCCCGTCCTTCCGCAGCCCAAGCGCCTCTTCCC
DNA 2: GGGAAGAGGCGCTTGGGCTGCGGAAGGACGGGGCGC
B14: Table S2 B row 713 (dsDNA)
DNA 1: CCCTTCCGCGTGGGTTGCACCTGCTAATCACAGAGC
DNA 2: GCTCTGTGATTAGCAGGTGCAACCCACGCGGAAGGG
B15: Table S2 B row 3244 (dsDNA)
DNA 1: CCCGCTGTCACTTCCTGCTTCCCTCCCGCGCACGTG
DNA 2: CACGTGCGCGGGAGGGAAGCAGGAAGTGACAGCGGG
B16: Table S2 B row 2753 (dsDNA)
DNA 1: AGTTGCTTCCTAATCCTGCTGAGCCATTAGCCCCAA
DNA 2: TTGGGGCTAATGGCTCAGCAGGATTAGGAAGCAACT
B17: Table S2 B row 2289 (dsDNA)
DNA 1: GAGGAAAGGAAGTCAAGGCCAGGGCCGAAGAGGCCA
DNA 2: TGGCCTCTTCGGCCCTGGCCTTGACTTCCTTTCCTC
B18: Table S2 B row 4047 (dsDNA)
DNA 1: CCGCTCTTCCTGGAGGTCTCTTGGCCGCTCACCCTC
DNA 2: GAGGGTGAGCGGCCAAGAGACCTCCAGGAAGAGCGG

Biological target: T1, ETS1
Assay: gcPBM; 1 nM ETS1
Conditions: tags: N-terminal GST (pDEST15), kept (PMC6008103); label: surface-attached array probe

| Binder | binding signal |
| --- | --- |
| B1 | 1230 PBM fluorescence, median of replicate spots |
| B2 | 20600 PBM fluorescence, median of replicate spots |
| B3 | 1260 PBM fluorescence, median of replicate spots |
| B4 | 1190 PBM fluorescence, median of replicate spots |
| B5 | 1600 PBM fluorescence, median of replicate spots |
| B6 | 1330 PBM fluorescence, median of replicate spots |
| B7 | 1460 PBM fluorescence, median of replicate spots |
| B8 | 1360 PBM fluorescence, median of replicate spots |
| B9 | 1570 PBM fluorescence, median of replicate spots |
| B10 | 1300 PBM fluorescence, median of replicate spots |
| B11 | 1620 PBM fluorescence, median of replicate spots |
| B12 | 1420 PBM fluorescence, median of replicate spots |
| B13 | 1510 PBM fluorescence, median of replicate spots |
| B14 | 1660 PBM fluorescence, median of replicate spots |
| B15 | 19700 PBM fluorescence, median of replicate spots |
| B16 | 1170 PBM fluorescence, median of replicate spots |
| B17 | 1410 PBM fluorescence, median of replicate spots |
| B18 | 1540 PBM fluorescence, median of replicate spots |
